From article PMC7920261

How the values were obtained:
[1] = target: SARS-CoV-1 spike receptor-binding domain (RBD) (SARS-CoV-1); assay: BLI
[2] = target: SARS-CoV-2 spike receptor-binding domain (RBD) (SARS-CoV-2) (UniProt P0DTC2); assay: BLI
[3] = target: SARS-CoV-2 spike receptor-binding domain (RBD) (SARS-CoV-2) (UniProt P0DTC2); assay: ELISA

Substance | Kd [1] | Kd [2] | IC50 [3]
CTC-445.2, recombinant (designed binder) | 7.1 µM | 21 nM | 10.4 nM
CTC-445, recombinant (designed binder) |  | 357 nM | 1700 nM
CTC-445.2d (designed binder) | 0.587 µM | 3.5 nM | 0.7 nM
